Results: patent US20250215444

Key:
[1] = target: T1, LST8-1 fused C-terminally to the GSrhino tag, TAP-purified from PSB-D cell cultures, Q9LV27
T1 chain: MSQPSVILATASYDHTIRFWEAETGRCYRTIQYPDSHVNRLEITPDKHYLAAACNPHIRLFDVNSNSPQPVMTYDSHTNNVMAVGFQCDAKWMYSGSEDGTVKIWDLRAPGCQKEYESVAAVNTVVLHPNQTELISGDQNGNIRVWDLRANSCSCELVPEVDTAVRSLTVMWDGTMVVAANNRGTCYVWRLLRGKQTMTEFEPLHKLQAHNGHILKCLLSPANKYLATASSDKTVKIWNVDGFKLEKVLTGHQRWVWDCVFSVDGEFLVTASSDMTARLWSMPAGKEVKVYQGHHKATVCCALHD

[2] = target: T2, Raptor1B fused N- or C-terminally to the GSrhino TAP tag, TAP-purified from PSB-D cell cultures
T2 chain: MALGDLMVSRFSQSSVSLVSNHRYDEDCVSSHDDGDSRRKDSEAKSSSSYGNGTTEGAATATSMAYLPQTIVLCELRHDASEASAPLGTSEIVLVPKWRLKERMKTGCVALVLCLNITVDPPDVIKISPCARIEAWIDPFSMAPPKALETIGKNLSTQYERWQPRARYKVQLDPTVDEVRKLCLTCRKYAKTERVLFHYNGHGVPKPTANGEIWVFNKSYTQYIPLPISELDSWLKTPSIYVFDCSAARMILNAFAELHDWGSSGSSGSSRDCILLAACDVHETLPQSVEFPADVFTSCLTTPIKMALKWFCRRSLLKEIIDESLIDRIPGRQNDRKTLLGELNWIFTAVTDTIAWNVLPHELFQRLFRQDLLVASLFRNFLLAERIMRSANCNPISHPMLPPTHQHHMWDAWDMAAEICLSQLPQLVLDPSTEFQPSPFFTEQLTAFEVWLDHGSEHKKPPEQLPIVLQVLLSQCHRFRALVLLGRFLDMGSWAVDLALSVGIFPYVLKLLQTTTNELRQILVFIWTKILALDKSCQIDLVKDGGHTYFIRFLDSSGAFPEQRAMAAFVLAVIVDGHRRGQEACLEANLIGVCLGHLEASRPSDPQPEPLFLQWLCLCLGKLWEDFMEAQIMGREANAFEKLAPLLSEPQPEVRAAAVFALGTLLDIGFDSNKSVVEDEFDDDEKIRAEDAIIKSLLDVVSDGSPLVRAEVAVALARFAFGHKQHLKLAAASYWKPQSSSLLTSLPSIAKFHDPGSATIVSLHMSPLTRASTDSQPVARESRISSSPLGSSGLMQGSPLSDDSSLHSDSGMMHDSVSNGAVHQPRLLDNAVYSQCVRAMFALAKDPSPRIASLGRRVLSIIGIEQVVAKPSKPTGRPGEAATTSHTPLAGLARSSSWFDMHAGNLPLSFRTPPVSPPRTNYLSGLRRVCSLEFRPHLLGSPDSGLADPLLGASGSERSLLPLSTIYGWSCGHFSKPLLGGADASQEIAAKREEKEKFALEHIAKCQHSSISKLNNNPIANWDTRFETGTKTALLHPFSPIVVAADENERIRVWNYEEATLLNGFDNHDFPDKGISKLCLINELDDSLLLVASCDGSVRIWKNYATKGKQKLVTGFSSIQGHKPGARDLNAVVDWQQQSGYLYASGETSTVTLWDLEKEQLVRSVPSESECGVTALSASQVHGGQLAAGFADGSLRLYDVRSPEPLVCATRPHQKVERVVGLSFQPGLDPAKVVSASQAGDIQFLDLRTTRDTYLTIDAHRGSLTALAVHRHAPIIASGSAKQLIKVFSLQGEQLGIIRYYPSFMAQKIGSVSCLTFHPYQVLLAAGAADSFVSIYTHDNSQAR

B1: Recombinant RSK1 (ARSK1) kinase, His-MBP fusion produced in E. coli BL21 (protein)
chain: MAVFKKKKTSLTSLFLGCYKAKNVSKYEGGEKAVMKIRTCPAFKRLSLSDISDPSSPMSVMDDLSHSFTSQKLRLFTLSELRVITHNFSRSNMLGEGGFGPVYKGFIDDKVKPGIEAQPVAVKALDLHGHQGHREWLAEILFLGQLSNKHLVKLIGFCCEEEQRVLVYEYMPRGSLENQLFRRNSLAMAWGIRMKIALGAAKGLAFLHEAEKPVIYRDFKTSNILLDSDYNAKLSDFGLAKDGPEGEHTHVTTRVMGTQGYAAPEYIMTGHLTTMNDVYSFGVVLLELITGKRSMDNTRTRREQSLVEWARPMLRDQRKLERIIDPRLANQHKTEAAQVAASLAYKCLSQHPKYRPTMCEVVKVLESIQEVDIRKHDGNNNKEGKKFVDINKFRHHRKGKRRVNIAYSDSLVYKESKAKQNDGI
**Q.** How did the “in vitro kinase assay” value [1] turn out when B1 was run?
**A.** ARSK1 could not phosphorylate these two proteins

**Q.** And the “in vitro kinase assay with ATP-P32, SDS-PAGE and autoradiography” value [2]?
**A.** In the presence of ARSK1, the RAPTOR1B phosphosignal (lanes 2 and 3, rectangle) is higher compared to the control (lane 4; no ARSK1)
